This is an account of results in the nanobody polyreactivity screen of Harvey et al. (2022).

The data set in a line: yeast display, Sf9 membrane polyspecificity reagent, FACS + sequencing; frameworks hold sequencing errors. The method, boiled down: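 A synthetic nanobody library was expressed on Saccharomyces cerevisiae BJ5465 by galactose induction for 36–48 hours. The library was stained for 1 hour at 4 °C with 10% biotinylated, detergent-solubilized Sf9 membrane reagent and enriched with streptavidin microbeads before FACS. Low and high (top ~1%) gates were set on anti-HA fluorescence for expression and streptavidin fluorescence for reagent binding, and each polyreactivity label reflects the gate of origin.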
Regarding “QVQLVESGGGLVQAGGSLRLSCAASGSIFKYNDMGWYRQAPGKERELVAAISWRGGRTYYADSVKGRFTISRDNAKNTVYLQMNSLKPEDTAVYYCNVVLDNRRGTYSYYYWGQGTQVTVSS”, the “polyreactivity (PSR sort gate)” value was “high polyreactivity”. Turning to “QVQLVESGGGLVQAGGSLRLSCAASGSIFKYNDMGWYRQAPGKEREWVAAIRLGGGSTSYADSVKGRFTISRDNAKNTVYLQMNSLKPEDTAVYYCNAYAVYLRYLWYDYWGQGTQVTVSS”, the “polyreactivity (PSR sort gate)” value is “low polyreactivity”.

“QVQLVESGGGLVQAGGSLRLSCAASGSIFKYNTMGWYREAPGKESELVAAINGGGSTYYADSVKGRFTISRDNAKNTVYVTMNCLNPEDTAVYYCAKVQRTRGWSLDYWGHGTQVTVSS”: the “polyreactivity (PSR sort gate)” value is listed as “high polyreactivity”.

As to “QVQLVESGGGLVQAGGSLRLSCAASGSIFKYYAMGGYRQAPGTERELVAAITQRGGSTYYADSVKGRFTISRDNAKNTGYLQMNRLNPEDTAVYYCNRYSLTAWYYRHGYYYWGQGTQVTVSS”, the “polyreactivity (PSR sort gate)” value is “high polyreactivity”.

On to “QVQLVESGGGLVQAGGSLRLSCAASGSIFKYYAMGWYRQAPGKERELVAAISRSGTSTYYADSVKGRFTISRDNAKNTVYLQMNSLKPEDTAVYYCAARLSYYSRMNYWGQGTQVTVSS”, for which the “polyreactivity (PSR sort gate)” value was “high polyreactivity”. Turning to “QVQLVESGGGLVQAGGSLRLSCAASGSIFKYYAMGWYRQAPGKERELVAAISSGGSTKYADSVKGRFTISRDNAKNTVYLQMNSLKPEDTAVYYCAARDPSRHARRAYDYWGEGTQVTVSS”, the “polyreactivity (PSR sort gate)” value is recorded as “low polyreactivity”.

As for “QVQLVESGGGLVQAGGSLRLSCAASGSIFKYYAMGWYRQAPGKERQLVAVITSGGSTYYADSVKGRFTISRDNAKNTVYLQMNSLKPEDTAVYYCAAGVRAYNWGEYDYWGLGTQVTVSS”, the “polyreactivity (PSR sort gate)” value is “low polyreactivity”. To “QVQLVESGGGLVQAGGSLRLSCAASGSIFKYYSMGWYRQAPGKERELVAAITIGGNTNYADSVKGRFTISRDNAKNTVYLQLNSLKPEDTAVYYCATGGYYSAIVYGGYDYWGQGTQVTVSS” belongs “low polyreactivity”; to “QVQLVESGGGLVQAGGSLRLSCAASGSIFLAYAMGWYRQAPGKEREFVAAISFSDGSTYYADSVKGRFTISRDNAKNTVYLQMNSLKPEETAVYYCNKGASPDDYDYWGQGTQVTVSS”, “low polyreactivity”; to “QVQLVESGGGLVQAGGSLRLSCAASGSIFLEYAMGWYRQAPGKERELVAAISSSGGSTYYADSVKGRFTISRDNAKNTVYLQMNSLKPEDTAVYYCAAGKSKYGVRGYYWGQGTQVTVSS”, “high polyreactivity”. To “QVQLVESGGGLVQAGGSLRLSCAASGSIFLFNAMGWYRQAPGKERELVAAINRDDSTYYADSVKGRFTISRDNAKNTVYLQMNSLKPEDTAVYYCAARQRLSWKTEYYWGQGTQVTVSS” belongs “low polyreactivity”; to “QVQLVESGGGLVQAGGSLRLSCAASGSIFLKNAMGWYRQAPGKERELVAAITPGGSTYYADSVKGRFTISRDNAKNTVYFQMNSLKPEDSAVYHCAARPGGGKYRGYYYWGQGTQVTVSS”, “high polyreactivity”. To “QVQLVESGGGLVQAGGSLRLSCAASGSIFLKYAMGWYRQAPGKERELVATISRGGITYYADSVKGRFTISRDNAKNTVYLQMNSLKPEDTAVYYCATTGGRQYGYWGQGTQVTVSS” belongs “high polyreactivity”; to “QVQLVESGGGLVQAGGSLRLSCAASGSIFLLYAMGWYRQAPGKERELVAAIRWSGARTYYADSVKGRFTISRDKAKNTVYLQMNSLKPDDTAVYYCAADYVVDDIYWWEGDYWGQGTQVTVSS”, “high polyreactivity”. On to “QVQLVESGGGLVQAGGSLRLSCAASGSIFLLYARGWYRQAPGKERELVAAISRGGSTYYADSVKGRFTISRDNAKNTVYLQMNSLKPEDTAVYYCAAKLYYGYDWGQGTQVTVSS”, for which the “polyreactivity (PSR sort gate)” value is “low polyreactivity”.

As to “QVQLVESGGGLVQAGGSLRLSCAASGSIFLNNAMGWYRQAPGKERELVAAITRNVGSTYYADSVKGRFTISRDNEKNTVYLQMNSLKPEDTAVYYCAADRRRRYDYWGQGTQVTVSS”, the “polyreactivity (PSR sort gate)” value is recorded as “low polyreactivity”. To “QVQLVESGGGLVQAGGSLRLSCAASGSIFLPNAMGWYRQAPGKEWELVAAISWSGGSTYADSVKGRFTISRDNAKNTVYLQMNSLKPEDTAVYYCAADDGFTPRDLYVGYDYWGLGTQVTVSS” belongs “low polyreactivity”; to “QVQLVESGGGLVQAGGSLRLSCAASGSIFLQNAMGWYRQAPGKERELVAAITNGGSTNYADSVKGRFTISRDNAKNTVYLQMNSLKPEDTAVYYCAAERAILSSDKQSLWRFDYWGQGTQVTVSS”, “low polyreactivity”; to “QVQLVESGGGLVQAGGSLRLSCAASGSIFLQNAMGWYRQAPGKERELVAAITNGGSTNYADSVKGRFTISRDNAKNTVYLQMNSLKPEDTAVYYCAVVRSYRGINDYWGQGTQVTVSS”, “low polyreactivity”. As for “QVQLVESGGGLVQAGGSLRLSCAASGSIFLSNAIGWYRQAPGKERELVADIDWTGGDTYYADSVKGRFTISRDNAKNTVYLQMNSLKPEDTAVYYCASDYGYRNLLTEYGYWGQGTKVTVSS”, the “polyreactivity (PSR sort gate)” value is reported as “low polyreactivity”.

“QVQLVESGGGLVQAGGSLRLSCAASGSIFLTNAMGWYRQAPGKERELVAAIRSGGSTSYADSVKGRFTISRDNAKNTVYLQMNSLKPEDTAVYYCNAESDYRNYKVHPSGIYEYWGQGTQVTVSS”: the “polyreactivity (PSR sort gate)” value is on record as “low polyreactivity”. “QVQLVESGGGLVQAGGSLRLSCAASGSIFLTNAMGWYRQAPGKEREMVAAITLSGGITYYADSVKGRFTISRDNAKNNVYLQMNILKPEDTAVYYCAADVPGGIGNGGGYDYWGQGTQVTVSS”: the “polyreactivity (PSR sort gate)” value is listed as “low polyreactivity”. Regarding “QVQLVESGGGLVQAGGSLRLSCAASGSIFLTYAMGWYRQAPGKESELVAAISSGDSTNYTDSVKGRFTISRDNAKNTVYLQMNSLKPEDTAVYYCAADLTYTMDHWGQGTQVTVSS”, the “polyreactivity (PSR sort gate)” value is “low polyreactivity”. As to “QVQLVESGGGLVQAGGSLRLSCAASGSIFLVNAKGWYRQAPGKERELVAAITWIGGSTYYADSVKGRFTISRDNAKNTVYLQMNSLKPEDTAVYYCAAYGKRLGGGGYYWGQGTQVTVSS”, the “polyreactivity (PSR sort gate)” value is on record as “high polyreactivity”. To “QVQLVESGGGLVQAGGSLRLSCAASGSIFLVNDMGWYRQAPGKERELVAAISYSGDSTYYADSVKGRFTISRDNAKNTVYLQMNSLKPEDTAVYYCAADVFIISYVAAWHVRIDEFEWGQGTQVTVSS” belongs “low polyreactivity”. On to “QVQLVESGGGLVQAGGSLRLSCAASGSIFLYNAMGWYRQAPGKERELVAAISASGGSTYYADSVKGRFTISRDNAKNTVYLQMNSLKPEDTAVYYCAAQYSDYDGFTWPLPPRYDYWGQGTQVTVSS”, for which the “polyreactivity (PSR sort gate)” value is on record as “high polyreactivity”. To “QVQLVESGGGLVQAGGSLRLSCAASGSIFLYNAMGWYRQAPGKERELVAAITWSTDRTYYADSVKGRFTISRDNAKNTVYVQMNSLKPEDTAVYYCNRLVNHIYVPRRDYWGQGTQVTVSS” belongs “low polyreactivity”; to “QVQLVESGGGLVQAGGSLRLSCAASGSIFLYNAMGWYRQAPGKERELVATITYIGGRTYYADSVKGRFTISRDNAKNTVYLQMNSLKQEDTAVYYCAAEYYVISSPSFYEYDYWGQGTQVTVSS”, “low polyreactivity”.

Turning to “QVQLVESGGGLVQAGGSLRLSCAASGSIFLYNTMGWYRQAPGKQRELVAALTYSGGSTYYADSVKGRFTISRDHAKNTVYLQMNSLKPEDTAVNYGNARHYSAYYSWGQGTLVTVSS”, the “polyreactivity (PSR sort gate)” value was “high polyreactivity”. In the case of “QVQLVESGGGLVQAGGSLRLSCAASGSIFLYYAMGWYRQAPGKVRALLAAISWDGGSTYYADSVKGRFTISRDNAKNTVYLQMNSLKPEDTAVYYCNKAPYYYLPHSLRYNYWGQGTQVTVSS”, the “polyreactivity (PSR sort gate)” value is on record as “high polyreactivity”.
